Assay [1] has as its target T1, Human IL-17A重组蛋白 (IL-17A-His) (human, UniProt Q16552 24-155, limits assumed, biotinylated in the ELISA of paragraph 276 (Biotin-IL-17A-His); site not stated).
T1 sequence: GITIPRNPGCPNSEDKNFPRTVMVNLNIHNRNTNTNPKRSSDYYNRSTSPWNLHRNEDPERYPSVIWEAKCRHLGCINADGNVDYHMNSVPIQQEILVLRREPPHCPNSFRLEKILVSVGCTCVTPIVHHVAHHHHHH
The assay is described as follows: cell-based or functional assay.

Assay [2] addresses T1, Human IL-17A重组蛋白 (IL-17A-His). The assay is described as follows: BLI, ForteBio OCTET R2, IL-17A-His immobilised on the sensor at 5 ug/mL, antibody 50-3.13 nM, 25℃.
Assay [3] has the same target. Description: ELISA, antibody coated at 2 ug/mL, Biotin-IL-17A-His titrated from 10 ug/mL, HRP-Streptavidin detection.

B1: Ixekizumab (antibody, human IgG4 S228P, kappa, V domains shown)
VH: QVQLVQSGAEVKKPGSSVKVSCKASGYSFTDYHIHWVRQAPGQGLEWMGVINPMYGTTDYNQRFKGRVTITADESTSTAYMELSSLRSEDTAVYYCARYDYFTGTGVYWGQGTLVTVSS
VL: DIVMTQTPLSLSVTPGQPASISCRSSRSLVHSRGNTYLHWYLQKPGQSPQLLIYKVSNRFIGVPDRFSGSGSGTDFTLKISRVEAEDVGVYYCSQSTHLPFTFGQGTKLEIKR
notes: Made in-house in 293F cells from the synthesised variable regions cloned into hIgG4 and hIgKc vectors; purified on Protein A; also called 阳性对照抗体Ixekizumab; 阳性抗体
For the molecule B1, in assay [1], the “IC50, luciferase activity of 293F-IL-17RA-IL-17Rc-ACT1-NFκB-Luc reporter cells stimulated with 0.1 μg/mL IL-17A” value worked out at 2.23 nM. The Kd (in general, the equilibrium constant for the complex coming apart) in assay [2] came out at 0.391 nM. Besides, the concentration giving a half-maximal response (EC50) (usually the concentration that produces a half-maximal response) in assay [3] is 10.1 µg/mL.

Values taken from patent CN118005785A (BEILAI PHARMACEUTICAL CO LTD, dated 2024).
